Results published in US20200283483A1 (TECHNISCHE UNIVERSITAET MUENCHEN, published 2020).
Square brackets hold non-standard residues; d marks the D form. dNMeF = CN[C@H](Cc1ccccc1)C(=O)O; NMeA = CN[C@@H](C)C(=O)O

Assays:
human αvβ3-integrin = target: T1, human αvβ3-integrin (human, UniProt P06756 31-992; P05106 27-718); test: solid-phase competition ELISA, soluble αvβ3 on coated vitronectin
T1 construct: soluble integrin bought from R&D; also called integrin αvβ3

human αvβ5-integrin = target: T2, human αvβ5-integrin (human, UniProt P06756 31-992; P18084 24-719, limits assumed); test: solid-phase competition ELISA, soluble αvβ5 on coated vitronectin
T2 construct: soluble integrin bought from Millipore

human αvβ6-Integrin = target: T3, human αvβ6-Integrin (human, UniProt P06756 31-992; P18564 22-707); test: solid-phase competition ELISA, soluble αvβ6 on coated LAP (TGF-β)
T3 construct: soluble integrin bought from R&D
T3 sequence (P06756 31-992 limits assumed, chain 1 of 2): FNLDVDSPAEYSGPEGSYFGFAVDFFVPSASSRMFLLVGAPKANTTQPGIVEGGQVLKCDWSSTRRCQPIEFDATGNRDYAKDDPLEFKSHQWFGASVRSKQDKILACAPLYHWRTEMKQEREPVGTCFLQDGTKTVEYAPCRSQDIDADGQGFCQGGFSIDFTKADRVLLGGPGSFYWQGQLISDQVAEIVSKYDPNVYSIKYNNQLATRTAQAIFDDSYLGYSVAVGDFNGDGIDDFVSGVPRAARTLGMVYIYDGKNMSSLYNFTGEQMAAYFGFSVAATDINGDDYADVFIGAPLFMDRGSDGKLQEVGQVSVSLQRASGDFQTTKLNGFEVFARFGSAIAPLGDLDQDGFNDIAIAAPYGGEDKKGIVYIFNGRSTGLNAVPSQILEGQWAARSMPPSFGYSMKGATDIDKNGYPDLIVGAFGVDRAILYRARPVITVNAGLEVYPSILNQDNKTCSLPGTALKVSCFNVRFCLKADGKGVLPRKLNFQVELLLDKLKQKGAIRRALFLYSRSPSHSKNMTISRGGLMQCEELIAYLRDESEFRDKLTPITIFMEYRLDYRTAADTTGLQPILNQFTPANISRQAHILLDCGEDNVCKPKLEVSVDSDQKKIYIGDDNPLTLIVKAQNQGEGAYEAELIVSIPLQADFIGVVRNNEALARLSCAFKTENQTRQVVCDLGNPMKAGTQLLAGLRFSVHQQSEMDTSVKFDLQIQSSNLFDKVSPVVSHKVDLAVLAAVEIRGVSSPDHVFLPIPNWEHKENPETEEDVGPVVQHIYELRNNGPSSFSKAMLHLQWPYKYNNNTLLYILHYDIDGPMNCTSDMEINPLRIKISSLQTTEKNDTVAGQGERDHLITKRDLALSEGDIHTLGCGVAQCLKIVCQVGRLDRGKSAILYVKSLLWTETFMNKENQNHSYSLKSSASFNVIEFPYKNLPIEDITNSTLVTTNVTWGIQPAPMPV
T3 sequence (P18564 22-707 limits assumed, chain 2 of 2): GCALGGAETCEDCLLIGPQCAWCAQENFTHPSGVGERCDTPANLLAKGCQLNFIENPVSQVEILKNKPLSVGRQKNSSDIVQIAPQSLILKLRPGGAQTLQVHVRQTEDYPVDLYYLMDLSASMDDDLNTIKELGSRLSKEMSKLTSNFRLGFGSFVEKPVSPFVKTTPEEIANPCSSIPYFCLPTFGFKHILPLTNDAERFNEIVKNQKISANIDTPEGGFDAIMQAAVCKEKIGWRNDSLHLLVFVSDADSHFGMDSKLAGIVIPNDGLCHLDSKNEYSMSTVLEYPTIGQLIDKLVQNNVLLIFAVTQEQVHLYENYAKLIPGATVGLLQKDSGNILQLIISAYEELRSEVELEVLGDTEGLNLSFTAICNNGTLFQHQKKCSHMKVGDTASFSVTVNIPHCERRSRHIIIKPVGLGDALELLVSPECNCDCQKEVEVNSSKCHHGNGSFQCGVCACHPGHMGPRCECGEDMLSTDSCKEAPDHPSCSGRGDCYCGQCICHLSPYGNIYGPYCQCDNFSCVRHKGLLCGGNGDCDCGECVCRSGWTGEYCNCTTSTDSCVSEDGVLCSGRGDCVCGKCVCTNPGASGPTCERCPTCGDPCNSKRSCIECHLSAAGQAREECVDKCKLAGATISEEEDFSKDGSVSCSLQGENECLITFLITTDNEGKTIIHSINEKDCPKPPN

T2 sequence (P06756 31-992 limits assumed, chain 1 of 2): as the sequence (P06756 31-992 limits assumed, chain 1 of 2) above
T2 sequence (P18084 24-719 limits assumed, chain 2 of 2): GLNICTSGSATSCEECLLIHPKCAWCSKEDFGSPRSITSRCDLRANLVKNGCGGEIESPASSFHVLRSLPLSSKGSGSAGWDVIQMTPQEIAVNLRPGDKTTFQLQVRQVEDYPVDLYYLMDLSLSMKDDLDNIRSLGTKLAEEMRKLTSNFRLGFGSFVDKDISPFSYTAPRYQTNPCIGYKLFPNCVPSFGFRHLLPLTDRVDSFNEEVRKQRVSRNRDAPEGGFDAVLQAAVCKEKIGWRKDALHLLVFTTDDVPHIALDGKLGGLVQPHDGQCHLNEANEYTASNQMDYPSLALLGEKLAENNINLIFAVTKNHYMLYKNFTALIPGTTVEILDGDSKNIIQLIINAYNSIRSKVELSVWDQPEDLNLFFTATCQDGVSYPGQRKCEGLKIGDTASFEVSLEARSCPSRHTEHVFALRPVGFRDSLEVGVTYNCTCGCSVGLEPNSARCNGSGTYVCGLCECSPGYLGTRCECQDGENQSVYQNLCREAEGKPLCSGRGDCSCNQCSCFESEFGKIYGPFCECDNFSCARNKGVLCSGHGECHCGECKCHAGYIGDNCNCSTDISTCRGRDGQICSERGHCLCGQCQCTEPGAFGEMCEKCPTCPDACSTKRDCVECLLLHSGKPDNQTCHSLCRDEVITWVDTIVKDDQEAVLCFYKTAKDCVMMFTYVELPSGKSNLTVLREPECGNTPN
T1 sequence (P06756 31-992 limits assumed, chain 1 of 2): as the sequence (P06756 31-992 limits assumed, chain 1 of 2) above
T1 sequence (P05106 27-718 limits assumed, chain 2 of 2): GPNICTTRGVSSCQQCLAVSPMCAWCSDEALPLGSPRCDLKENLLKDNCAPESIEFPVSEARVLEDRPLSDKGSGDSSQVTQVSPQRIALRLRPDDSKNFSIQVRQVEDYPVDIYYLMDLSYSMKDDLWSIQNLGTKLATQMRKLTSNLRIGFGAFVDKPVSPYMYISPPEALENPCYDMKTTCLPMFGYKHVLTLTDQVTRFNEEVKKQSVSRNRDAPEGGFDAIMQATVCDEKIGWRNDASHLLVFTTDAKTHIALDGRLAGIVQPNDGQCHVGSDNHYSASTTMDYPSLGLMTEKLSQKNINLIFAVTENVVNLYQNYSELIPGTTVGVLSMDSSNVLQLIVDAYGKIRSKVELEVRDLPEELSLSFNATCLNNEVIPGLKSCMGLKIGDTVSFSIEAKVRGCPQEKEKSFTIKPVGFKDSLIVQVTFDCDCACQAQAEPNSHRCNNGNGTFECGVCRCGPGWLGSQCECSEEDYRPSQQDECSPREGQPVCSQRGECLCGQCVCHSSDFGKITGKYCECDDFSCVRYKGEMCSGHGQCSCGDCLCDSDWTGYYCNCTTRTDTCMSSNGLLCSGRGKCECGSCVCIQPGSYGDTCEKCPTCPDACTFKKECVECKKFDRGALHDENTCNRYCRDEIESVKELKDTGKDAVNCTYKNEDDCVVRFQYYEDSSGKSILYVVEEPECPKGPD

Binder: cyclo([dNMeF]RGDA[NMeA]) (scaffold NMe(1,6)) [peptide #30 c(*fRGDA*A)]
- IC50 (human αvβ3-integrin): 0.6 nM
- IC50 (human αvβ5-integrin): 145 nM
- IC50 (human αvβ6-Integrin): 120 nM
